Results as given in WO2020135415A1 (dated 2020).

What was measured:
PD-L1 expressed by DC = assay: cell-based or functional assay
human PD-L1 protein = biological target: T1, human PD-L1 protein (human, UniProt Q9NZQ7 19-238, limits assumed); assay: binding to human PD-L1 protein; method not stated
T1 construct: also called hPD-L1; huPD-L1
T1 sequence (Q9NZQ7 19-238 limits assumed): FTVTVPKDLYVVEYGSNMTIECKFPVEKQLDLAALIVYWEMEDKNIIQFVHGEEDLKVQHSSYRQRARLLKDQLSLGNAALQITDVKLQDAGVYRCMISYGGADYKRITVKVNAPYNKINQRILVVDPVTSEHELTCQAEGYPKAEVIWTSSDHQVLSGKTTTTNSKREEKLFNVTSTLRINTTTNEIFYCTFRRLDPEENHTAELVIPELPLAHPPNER

Chain of PD-L1 expressed by DC (Q9NZQ7 whole entry): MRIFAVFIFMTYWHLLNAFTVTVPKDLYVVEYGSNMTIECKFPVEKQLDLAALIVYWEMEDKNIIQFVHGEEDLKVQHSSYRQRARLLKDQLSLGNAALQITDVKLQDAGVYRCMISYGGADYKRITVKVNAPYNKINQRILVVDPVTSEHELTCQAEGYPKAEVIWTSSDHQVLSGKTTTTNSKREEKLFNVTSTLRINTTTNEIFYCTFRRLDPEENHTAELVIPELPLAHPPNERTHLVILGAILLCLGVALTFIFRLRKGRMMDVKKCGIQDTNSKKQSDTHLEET

secretion of IFN-γ in MLR of CD4+:DC cells, EC50 (PD-L1 expressed by DC): 0.035 µg/mL | EC50 (human PD-L1 protein): 0.0213 µg/mL
B1: hu5G11-hIgG1 (antibody, V domains shown)
VH: QITLKESGPTLVKPTQTLTLTCTVSGFSLSTYGVHWIRQPPGKALEWLGVIWRGVTTDYNAAFMSRLTITKDNSKNQVVLTMNNMDPVDTATYYCARLGFYAMDYWGQGTLVTVSS
VL: DIQMTQSPSSLSASVGDRVTITCKASQSVSNDVAWYQQKPGKAPKLLIYYAANRYTGVPDRFSGSGYGTDFTFTISSLQPEDIATYFCQQDYTSPYTFGQGTKLEIKR
